The source of these data is US20130289246A1.

What all share (assay): cell-based or functional assay
The target in assay [1] is HA of A/Alabama/1/1981 (H3N2) virus (Influenza A virus (H3N2)).
The target in assay [2] is HA of A/Vietnam/1203/2004 (H5N1) virus (Influenza A virus (H5N1)).
The target of assay [3] is HA of A/Hong Kong/1/1968 (H3N2) virus (Influenza A virus (H3N2)) (UniProt Q91MA7).
Assay [4] has as its target HA of A/California/04/2009 (H1N1) virus (Influenza A virus (H1N1)).

As to murine hybridoma mAb S139/1 (antibody), the HAI activity was more than 50 µg/mL in assay [1], more than 50 µg/mL in assay [2], less than 0.2 µg/mL in assay [3] and more than 50 µg/mL in assay [4].
